According to IntAct's records for PubMed 31515488:

B1: Hypoxanthine-guanine phosphoribosyltransferase (Homo sapiens), P00492 (parent)
chain: MATRSPGVVISDDEPGYDLDLFCIPNHYAEDLERVFIPHGLIMDRTERLARDVMKEMGGHHIVALCVLKGGYKFFADLLDYIKALNRNSDRSIPMTVDFIRLKSYCNDQSTGDIKVIGGDDLSTLTGKNVLIVEDIIDTGKTMQTLLSLVRQYNPKMVKVASLLVKRTPRSVGYKPDFVGFEIPDKFVVGYALDYNEYFRDLNHVCVISETGKAKYKA
B2: Meiotic recombination protein DMC1/LIM15 homolog (Homo sapiens), Q14565 (parent)
chain: MKEDQVVAEEPGFQDEEESLFQDIDLLQKHGINVADIKKLKSVGICTIKGIQMTTRRALCNVKGLSEAKVDKIKEAANKLIEPGFLTAFEYSEKRKMVFHITTGSQEFDKLLGGGIESMAITEAFGEFRTGKTQLSHTLCVTAQLPGAGGYPGGKIIFIDTENTFRPDRLRDIADRFNVDHDAVLDNVLYARAYTSEHQMELLDYVAAKFHEEAGIFKLLIIDSIMALFRVDFSGRGELAERQQKLAQMLSRLQKISEEYNVAVFVTNQMTADPGATMTFQADPKKPIGGHILAHASTTRISLRKGRGELRIAKIYDSPEMPENEATFAITAGGIGDAKE

Variants of: B1
Conditions: with sdcb1_human SDCBP
Target sequence in this assay (O00560 whole entry): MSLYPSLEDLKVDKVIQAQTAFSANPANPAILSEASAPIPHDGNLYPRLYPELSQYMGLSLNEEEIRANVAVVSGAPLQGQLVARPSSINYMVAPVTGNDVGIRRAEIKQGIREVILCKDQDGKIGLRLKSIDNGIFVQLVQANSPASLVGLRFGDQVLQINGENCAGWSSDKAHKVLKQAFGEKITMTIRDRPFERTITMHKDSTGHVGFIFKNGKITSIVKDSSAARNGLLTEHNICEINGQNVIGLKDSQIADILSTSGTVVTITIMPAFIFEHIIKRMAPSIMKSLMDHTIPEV

| effect of a mutation on the interaction | Variant |
| --- | --- |
| disrupting interaction strength | P38S |
| disrupting interaction strength | C206Y |

Variants of: B1
Conditions: with iscu_human ISCU

| effect of a mutation on the interaction | Variant |
| --- | --- |
| disrupting interaction strength | P38S |
| disrupting interaction strength | C206Y |

Variants of: B1
Conditions: with prdc1_human PRTFDC1, Q9NRG1
prdc1_human PRTFDC1, Q9NRG1, sequence (Q9NRG1 whole entry): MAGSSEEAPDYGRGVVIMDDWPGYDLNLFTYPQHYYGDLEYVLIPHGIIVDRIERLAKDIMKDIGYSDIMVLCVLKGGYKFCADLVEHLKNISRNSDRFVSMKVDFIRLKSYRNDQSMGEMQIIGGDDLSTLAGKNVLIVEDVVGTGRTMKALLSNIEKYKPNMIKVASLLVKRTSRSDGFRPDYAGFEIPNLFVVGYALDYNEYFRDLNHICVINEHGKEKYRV

| effect of a mutation on the interaction | Variant |
| --- | --- |
| with no effect | P38S |
| with no effect | C206Y |

Variants of: B1
Conditions: with ntaq1_human NTAQ1, Q96HA8

| effect of a mutation on the interaction | Variant |
| --- | --- |
| disrupting interaction strength | P38S |
| disrupting interaction strength | C206Y |

Variants of: B2
Conditions: with gors2_human GORASP2, Q9H8Y8

| effect of a mutation on the interaction | Variant |
| --- | --- |
| with no effect | M200V |

Variants of: B2
Conditions: with sdcb1_human SDCBP
Target sequence in this assay (O00560 whole entry): as the sequence (O00560 whole entry) above

| effect of a mutation on the interaction | Variant |
| --- | --- |
| disrupting interaction strength | M200V |

Variants of: B2
Conditions: with kcd17_human KCTD17, Q8N5Z5
kcd17_human KCTD17, Q8N5Z5, sequence (Q8N5Z5 whole entry): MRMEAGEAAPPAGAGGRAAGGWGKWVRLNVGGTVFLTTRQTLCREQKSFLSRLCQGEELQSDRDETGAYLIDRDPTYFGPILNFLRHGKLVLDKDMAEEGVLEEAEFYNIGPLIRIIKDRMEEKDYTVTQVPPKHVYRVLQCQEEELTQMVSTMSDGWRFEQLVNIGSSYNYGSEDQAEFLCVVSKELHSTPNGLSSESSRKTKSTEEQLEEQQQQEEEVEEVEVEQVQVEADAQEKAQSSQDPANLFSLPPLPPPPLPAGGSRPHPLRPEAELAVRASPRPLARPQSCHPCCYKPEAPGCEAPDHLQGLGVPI

| effect of a mutation on the interaction | Variant |
| --- | --- |
| disrupting interaction strength | M200V |

Variants of: B2
Conditions: with psa3_human PSMA3, P25788
psa3_human PSMA3, P25788, sequence (P25788 whole entry): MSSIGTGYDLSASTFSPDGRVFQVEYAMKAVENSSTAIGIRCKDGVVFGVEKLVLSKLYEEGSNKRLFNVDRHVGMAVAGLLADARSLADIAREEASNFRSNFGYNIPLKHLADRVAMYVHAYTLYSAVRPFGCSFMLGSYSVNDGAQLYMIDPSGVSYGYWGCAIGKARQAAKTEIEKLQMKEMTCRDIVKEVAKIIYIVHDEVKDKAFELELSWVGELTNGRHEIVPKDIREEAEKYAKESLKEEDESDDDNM

| effect of a mutation on the interaction | Variant |
| --- | --- |
| with no effect | M200V |
